Target: T1, GST-TNFAIP1(1–316) (UniProt Q13829 1-316)
T1 sequence (looked up): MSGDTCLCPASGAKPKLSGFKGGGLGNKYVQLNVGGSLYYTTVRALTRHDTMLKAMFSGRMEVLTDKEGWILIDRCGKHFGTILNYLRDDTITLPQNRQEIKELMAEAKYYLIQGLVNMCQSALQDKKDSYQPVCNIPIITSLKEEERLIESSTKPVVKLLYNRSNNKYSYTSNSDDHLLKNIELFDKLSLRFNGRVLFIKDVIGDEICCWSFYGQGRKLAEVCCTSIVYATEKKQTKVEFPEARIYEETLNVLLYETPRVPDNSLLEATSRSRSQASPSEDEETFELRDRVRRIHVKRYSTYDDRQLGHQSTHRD
Assay: pull-down

B1: His-CSNK2B (natural protein)
chain: not shown
  binding result: binds

From paper PMC6950786 (EBioMedicine, 2020)
